According to article doi:10.64898/2025.12.13.693833 (bioRxiv, 2025):
Changes are numbered by the printed parent chain. In names and notes the source's numbering stands. Values belong to the molecule of their own block, whether it stands above or below them.

Columns and labels:
PP2A Aα subunit (human) = PP2A Aα subunit (human) (UniProt P30153); assay: MST
PP2A Cα subunit [1] = target: T1, PP2A Cα subunit (human, UniProt P67775 2-309); assay: BLI
PP2A(B55α) holoenzyme [2] = target: T2, PP2A(B55α) holoenzyme (human, UniProt P30153 1-589; P63151 1-447; P67775 2-309); assay: BLI
T2 sequence (P30153 whole entry, chain 1 of 3): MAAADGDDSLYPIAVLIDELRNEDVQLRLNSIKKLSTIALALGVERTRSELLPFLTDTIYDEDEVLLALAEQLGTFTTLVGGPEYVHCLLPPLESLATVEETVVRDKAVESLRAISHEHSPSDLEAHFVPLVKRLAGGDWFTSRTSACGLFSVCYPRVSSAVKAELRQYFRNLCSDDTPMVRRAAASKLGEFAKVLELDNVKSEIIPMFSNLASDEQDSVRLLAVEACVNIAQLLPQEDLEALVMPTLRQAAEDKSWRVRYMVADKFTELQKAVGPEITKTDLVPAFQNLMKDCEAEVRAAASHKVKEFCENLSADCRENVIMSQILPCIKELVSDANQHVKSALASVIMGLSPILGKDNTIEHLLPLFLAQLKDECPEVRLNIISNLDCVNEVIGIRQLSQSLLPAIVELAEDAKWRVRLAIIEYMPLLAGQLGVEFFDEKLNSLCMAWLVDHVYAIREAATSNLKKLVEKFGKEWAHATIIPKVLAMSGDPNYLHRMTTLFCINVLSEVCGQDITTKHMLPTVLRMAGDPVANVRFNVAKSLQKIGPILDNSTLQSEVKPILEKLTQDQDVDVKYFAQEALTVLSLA
T2 sequence (P63151 whole entry, chain 2 of 3): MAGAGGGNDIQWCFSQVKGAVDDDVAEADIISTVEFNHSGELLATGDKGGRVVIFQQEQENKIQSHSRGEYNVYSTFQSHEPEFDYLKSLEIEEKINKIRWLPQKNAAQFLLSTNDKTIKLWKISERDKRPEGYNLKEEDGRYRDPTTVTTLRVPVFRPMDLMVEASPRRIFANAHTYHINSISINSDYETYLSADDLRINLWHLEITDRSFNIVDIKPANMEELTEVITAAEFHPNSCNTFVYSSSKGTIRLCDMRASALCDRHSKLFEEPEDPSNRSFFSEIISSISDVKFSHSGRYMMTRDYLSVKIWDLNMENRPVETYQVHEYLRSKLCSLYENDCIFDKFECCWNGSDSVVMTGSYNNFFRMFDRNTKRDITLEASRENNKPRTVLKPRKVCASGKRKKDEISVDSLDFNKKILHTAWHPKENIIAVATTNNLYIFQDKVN
T2 sequence (P67775 2-309, chain 3 of 3): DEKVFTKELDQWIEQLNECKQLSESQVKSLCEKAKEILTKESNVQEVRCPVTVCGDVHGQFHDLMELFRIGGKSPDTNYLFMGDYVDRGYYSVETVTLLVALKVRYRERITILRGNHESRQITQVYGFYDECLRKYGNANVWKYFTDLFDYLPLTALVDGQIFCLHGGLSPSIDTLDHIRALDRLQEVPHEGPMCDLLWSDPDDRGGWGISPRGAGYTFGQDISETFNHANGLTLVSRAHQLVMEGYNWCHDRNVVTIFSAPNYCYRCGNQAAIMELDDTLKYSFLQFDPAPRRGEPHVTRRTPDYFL

PP2A(B55α) holoenzyme [3] = target: T2, PP2A(B55α) holoenzyme; assay: BLI; remark: listed apart in the source
PP2A Cα subunit [4] = target: T1, PP2A Cα subunit; assay: cryo-EM structure

PP2A Aα subunit (human), sequence (P30153 whole entry): as the sequence (P30153 whole entry, chain 1 of 3) above
T1 sequence (P67775 2-309): as the sequence (P67775 2-309, chain 3 of 3) above

B1: GST-ENSA^S67D-His6 (natural protein, human, UniProt O43768 1-121, looked up)
chain: MSQKQEEENPAEETGEEKQDTQEKEGILPERAEEAKLKAKYPSLGQKPGGSDFLMKRLQKGQKYFDDGDYNMAKAKMKNKQLPSAGPDKNLVTGDHIPTPQDLPQRKSSLVTSKLAGGQVE
binding result (PP2A Cα subunit [1]): binds | Kd (PP2A(B55α) holoenzyme [2]): 0.66 µM

B2: GST-ENSA^S67D R57A-His6 (natural protein, human, UniProt O43768 1-121, looked up)
chain: B1 chain with R57A
binding result (PP2A(B55α) holoenzyme [3]): binds

B3: GST-ENSA^WT-His6 (natural protein, human, UniProt O43768 1-121, looked up)
chain: B1 chain with D67S
Kd (PP2A(B55α) holoenzyme [2]): 1.45 µM

B4: GST-ENSA^S67D K40A-His6 (natural protein, human, UniProt O43768 1-121, looked up)
chain: B1 chain with K40A
binding result (PP2A(B55α) holoenzyme [3]): binds

B5: GST-ENSA^S67D E30A-His6 (natural protein, human, UniProt O43768 1-121, looked up)
chain: B1 chain with E30A
binding result (PP2A(B55α) holoenzyme [3]): binds

The remaining lines, values ahead:

Kd (PP2A Aα subunit (human)): 600 µM
Molecule: tag-free ENSA^WT (from UniProt O43768 1-121) (natural protein)

Kd (PP2A Aα subunit (human)): 800 µM
Molecule: tag-free ENSA^S67D (from UniProt O43768 1-121) (natural protein)

binding result (PP2A Cα subunit [4]): binds
B6: His6-TEV site-ENSA^S67D (natural protein, human, UniProt O43768 1-121, looked up)
chain: B1 chain
